From the nanobody polyreactivity screen of Harvey et al. (2022)

Assay: yeast display, Sf9 membrane polyspecificity reagent, FACS + sequencing; frameworks hold sequencing errors
Summary of the method: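 After 36–48 hours of galactose induction, yeast (Saccharomyces cerevisiae BJ5465) displaying a synthetic nanobody library were stained at 4 °C for 1 hour with 10% biotinylated, detergent-solubilized Sf9 membrane reagent. Streptavidin microbeads enriched the stained cells before FACS sorting into low and high (top ~1%) gates on anti-HA and streptavidin fluorescence. Each clone's polyreactivity label reflects its gate of origin.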

| Sequence | polyreactivity (PSR sort gate) |
| --- | --- |
| QVQLVESGGGIVHEGGSLRLSCAASGSIFFGYAMGWYRLAPGKELELVAAISASGGLTFYADSLKGRFTISRDNAKNTVYLQMNSLKPEDPAVYYCAKRGRSTYGYDYWGQGTQVTVSS | high polyreactivity |
| QVQLVESGGGLVQAGGTLRLSCAASGRIFPRNVLGWYRQAPGKEWELVAAISSRGTRTYYADSVKGRFTISRDNAKNTVYLQMNSLKPEDTPVYYCAADGPYEGYDDWGQGTQVTVSS | high polyreactivity |
| QVQLVESGGGLVQAGGSLRLSCAASGFTLENYAMGWYRQAPGKARELVAAINCRGSRTYYADSVKGRFTISRDNAMNTVYLQMNSLKPEDTAVYYCARDKRTNSGFYYWGQGTQVTVSS | high polyreactivity |
| QVQLVESGGGLVQAGGSLRLSCAASGRNFYGYTMGWYRQAPGKERELVAAITSGGSTYYADSVKGRFTISRDNAKNTVYLQMNSLKPEDTAVYYCNAKYNGYYRRFSEYDYWGQGTQVTVSS | high polyreactivity |
| QVQLVESGGGLVQAGGSLRLSCAASGFIFRAYTMGWYRQAPGKERELVAAITSSGGRTYYADSVKGRFTISRDNAKNTVYLQMNSLKPEDTAVYYCATVYAKWKQFDYWGQGTQVTVSS | high polyreactivity |
| QVQLVESGGGLVQAGGSLRLSCAASGRTFWNYAMGWYRQAPGKERELVAVIRFSDGSTYYADSVKGRFTISRDNAKNTVYLQMNSLKPEDTAVYYCADIGPRRWGSGFDYWGQGTQVTVSS | low polyreactivity |
| QVQLVESGGGLVQAGGSLRLSCAASGGIFISYAMGWYRQAPGKERELVAAITSSGGSTYYADSVKGRFTISRDNAKNTVYLQMNSLKPEVTAVYYCNTDRVPVKVSPLYESWGQGTQVTVSS | low polyreactivity |
| QVQLLESGGGVVQAGGSLRLSCASSGFTFRINAMGWYRPAPGKERELVAANSGRGGSTYYADSVKGRFTISRDYAKNTVYLQMNSLKPEDTAVYYCAAKGSSSLSYYYWGQGTQVTVSS | high polyreactivity |
| KVQLQESGGGLVQAGGSLRLSCAASCTISQEDWMGWYRQAPGKEREFVAAIGLGSNTNYADSLKGRFPISRDNAKNTVYLQMNSLKPEDTAVYYCAVSVWQYSDHVYRGQGTQVTVSS | low polyreactivity |
| QVQLVESGGGLVQAGGSLRLSCAASGFIFAYYAQGWYRQAPGKERELVAAITSRGGSTYYADSVKGRFTSSRDNAKNTVYVQMNSLKPEDTAVYYCAGRGYQRQYYYWGQGTQVTVSS | high polyreactivity |
| QVQLVESGGGLVQAGGSLRLSCAASGRIFYYYAMGWYRQAPATERELFAGINSGGNTYADSVKGRFTISRDNAKNTVYLQMNSLKPEDTAVYYCATDFYSYAGGYYHHDHWGQGTQVTVSS | high polyreactivity |
| QVQLVESGGRLVQAGCSLRLSCAASGFTFYQNAMGWYRQAPGKVRELVAAISVSGDSTYYADSVKGRLTISRDNAKNTVYLQMNSLKPEDTAVYYCTEYFYYLSLYYYYWFNYDYWGHGTQVTVSS | low polyreactivity |
| QVQLVESGGGLVQAGGSLRLRCAASGFIFPQYAMGWYRQAPGKEREKVAAISWSGTRTYYADSVKGRFTISRDNAKNTVYLQMNSLKPEDTADYYCAARIDRQYRWTGFGYWGQGTQVTVSS | high polyreactivity |
| QVHLVESGGGLVQAGGSLRLICAASGRILTFNAMGWYRQAPGKERELVAGINWSGDSTYYADSVKGRFTISRDNAKNTVYLQINSLKPEDTAFYYCTKYSYKAHFNYWGQGTQVTVSS | low polyreactivity |
| QVQLVESGGGLVQAGGSLRLSCAASGSTCDYYAMGWYRQAPGKEREIVAAITTGGDTTNYADSVKGRFTISRDNAKNTVYLQMNSLKPEVTAVYYCARDTGYDLIVLPDDSWGQGTQVTVSS | low polyreactivity |
| QVQLVESGGGLVQAGGSLRLSCAASGSTFPRNAMGWYRQAPGKERELVATISTSGGSTYYADSVKGRFTISRDNAKNTVYLQMNSLKPEDTPVYYCAAVFWFRSLSGYIYDYWGQGTQVSVSS | low polyreactivity |

| Sequence | polyreactivity (PSR sort gate) |
| --- | --- |
| QVQLVESGGGLVQAGGSLRLSCAASGSIFPGNTMGWYRQAPGKERELVAVITKRGGRTYYADSVKGRFTISRDNAKNTVYLQMNSLKPEDTAVYYCARAPSYSTGVSIRDYWGQGTQVTVSS | high polyreactivity |
| QVQLVESGGGLVQAGGSLRLSCAASGSIFYYYAMGWYRQAPGKERELVADITRDCGTTYYADSVKGRFTISRDNAKNTVYLQMNSLKPEDTAVYYCNARSIVFDWSAGRAKMDYWGQGTQVTVSS | low polyreactivity |
| QVQLVESGGGLVQAGGSLRLSCAASGRIFYSNTMGWYRQAPGKERELVARIDTGGGSTYADSVKGRFTISRDNAKNTVYLQMNSLKPEDTAVYYCNKKGRWRSWGSTSLVSMDYWGQGTQVTVSS | low polyreactivity |
| QVQLVESGGGLVQAGGSLRLSCAASGFTFRGYVMGWYRQAPGKERELVAAITNIGTSTYYADSVKGRFTISRDNAKNTVYLQMNSLNPEDTAVYYCAARLRSIFYDWGLGTQVTVSS | low polyreactivity |
| QVQLVESGGGLVQAGGSLRLSCAASGSIFPRYAMGWYSQAPGKERELVATISYRGGTTYYADSVKGRFTISRDNEKNTVYLQMNSLKPEDSAVYYCNTLYYRGIYDPWGQGTQVTVSS | high polyreactivity |
| QVQLVESGGGLVQAGGSLRLSCAASGSTFSSYAMGWYRQAPGKEREFVAAINTDGGSTYYADSVKGRFTISRDNAKNTVYLQMNSLKPEDTAVYYCAARYYWPWYSSYDYWGQGTQVTVSS | low polyreactivity |
| QVQLVESGGGLVKAGGSLRLTCAASGSIFRYYAMGWYRQAPGKERELVAAISGSGGSTYYADSVKGRFTISRDNAKNTVYLQMNSLKPEDTAVYYCARVRGCYDKMYYWGQGTQVTVSS | high polyreactivity |
| QVQLVESGAGLVQAGGSLRFSCAASGFIFVDNTMGWSSQAPGKEMELVAAISYSAGSTYYADSVKGRFTISRDNAMNTVYLQMNCLKPEDTAVYDCAAQHSWVTSYLYSYDYWGQGTQVTVSS | low polyreactivity |
| QVHLVESGGGLVQAGGRLRLSCAASGSIFFRYAMGWYRQAPGKERELVAAINSRGGRTYYADSVKGRFTISRDNAKNTVYLQMNSLKPEDTAVYYCAAKGYWAKGGKTYGGYDYWGQGTQVTGSS | high polyreactivity |
| QVQLVESGGGLVQAGGSLRLSCAASGSTFYTNAMGWSRQAPGKQREFVAALSGRGSNTYYADSVKGRFTISRYNAKNTVYLQMNSLKPEDTAVYYCAARRLAGFGYWGQGTQVTVSS | high polyreactivity |
| QVQLVESGGGLVQAGGSLRLSCAASGFTIIRYAMGWYRPAPGKERELVATITRRGGSTYYADSVKGRFTISRDNAKNTVYLQMNSLKPEDTAVYYCAARIRPLYANVRYGYWGQGTQVTVSS | high polyreactivity |
| QVQLVESGGGLVQAGGSLRLSCAASGFTFAYYAMGWYRQAPGKERELVAAISSGGGSTYYADSVKGRFTISRDNAKNTVYLQMNSLKPEDTAVYYCATTIQISYDSIWYDYWGQGTQVTVSS | high polyreactivity |
| QVQLVESGGGIVQAGGSLRLRWAASGLTSVRNAMGWYRQAPGKERELVAGISWSGGRTYYADSVKGRFTISRDNEKNTVYLQMNSLKPEDTGVYYCNKVRAYYTQEGSWGQGTQVTVSS | high polyreactivity |
| QVQLVESGGGLVQAGGSLRLSCAASGRIFYSNTMGWYRQAPGKERELVARIDTGGGSTYADSVKGRFTISRDNAKNTVYLQMNSLKPEDTAVYYCAKTIAVNTWYYYWGQGTQVTVSS | low polyreactivity |
| QVQLVESGGGIVQAGGSLRLSFAASGSTFAGYAMGLYREAPGKERELVATFTYSGGSTYYADSVKGRFSISRDNAKNTVYLQMNSLKPEDTAVYYCAKNASYLWGYEYWGQGTQVTVSS | low polyreactivity |
| QVQLVESGGGLVQAGGSLRLSCAASGGTCSFYTMGWYRQAPGKERELVAAISRSGGRTYYADSVKGRFTISRDNAQNTVYLQMNSLKPEDTAVYYCAAERFSNIYTTMGYWGQGTQVTVSS | high polyreactivity |
